# Source: article PMC11681865, “Oligomerization of protein arginine methyltransferase 1 and its functional impact on substrate arginine methylation” (The Journal of Biological Chemistry, 2024)
# Legend:
# [1] = test system: R4 peptide; assay: Radiometric methyltransferase activity of PRMT1 mutants on R4 peptide; assay type: biochemical; details: various mutant concentrations, 50 μM peptide, 2 μM [3H]-SAM and 48 μM SAM, 30 min
# Description: (§1) Constant PRMT1-WT concentration and various PRMT1-E153Q concentrations were maintained in the aqueous buffer prior to adding peptide and SAM to initiate the reaction. The reaction was quenched with isopropanol. The reaction mixture was loaded on the P81 filter paper that was air dried, washed, and immersed in scintillation cocktail for scintillation counting. […] To eliminate this possibility, we created a double mutant (PRMT1-H293G/E153Q) to further abolish PRMT1 activity. […] We then tested PRMT1-WT activity in the presence of various concentrations of PRMT1-H293G/E153Q (Fig. 7, G–L). […] These increasing trends were the same as that of PRMT1-E153Q. […] Again, similar to Figure 6, D–F, the increase in kcat started to slow down a bit at >1 μM concentrations of PRMT1-E153Q or PRMT1-H293G/E153Q, which is likely due to substrate overconsumption under these conditions.
# To perform PRMT1 and PRMT1 mutants (PRMT1-E153Q and PRMT1-H293G/E153Q) concentration-dependent measurement, each reaction contained various concentration of PRMT1 or PRMT1 mutant, 50 μM of peptide, and 50 μM SAM (48 μM cold and […] ^3H-SAM). The reaction buffer consisted of 50 mM Hepes pH 8.0, 10 mM NaCl, 0.5 mM EDTA, and 0.5 mM DTT. The reaction was incubated at room temperature for 30 min after being initiated with ^3H-SAM SAM. An equal amount of 100% isopropanol to the total reaction volume was used to quench the reaction. […]
# [2] = biological target: T1, PRMT1-WT (Homo sapiens, UniProt Q99873); assay: Radiometric filter-binding assay, PRMT1-WT activity in presence of inactive PRMT1 mutants; assay type: biochemical; details: 0.05 μM PRMT1-WT, mutant 20 min on ice, 50 μM peptide, 2 μM [3H]-SAM and 48 μM SAM, 30 min
# T1 construct: His-MBP (N, cleaved yes); made in house; host or cells: Escherichia coli BL21 (DE3) RIPL
# Description: as §1
# Figure 7 Arginine methylation of various peptides by high-order oligomeric PRMT1-WT and PRMT1 mutants. Filter-binding assay was used to characterize the methyltransferase activity. Firstly, 0.05 μM of PRMT1 was incubated with various concentrations of PRMT1-E153Q or PRMT1-H293G/E153Q on ice for 20 min. Afterward, 2 μM radioactive [3H]-SAM and 48 μM SAM and 50 μM of indicated peptides was added and incubated for 30 min before quenching the reaction with 100% isopropanol. […]
# T1 sequence (Q99873 11-353 isoform Q99873-3): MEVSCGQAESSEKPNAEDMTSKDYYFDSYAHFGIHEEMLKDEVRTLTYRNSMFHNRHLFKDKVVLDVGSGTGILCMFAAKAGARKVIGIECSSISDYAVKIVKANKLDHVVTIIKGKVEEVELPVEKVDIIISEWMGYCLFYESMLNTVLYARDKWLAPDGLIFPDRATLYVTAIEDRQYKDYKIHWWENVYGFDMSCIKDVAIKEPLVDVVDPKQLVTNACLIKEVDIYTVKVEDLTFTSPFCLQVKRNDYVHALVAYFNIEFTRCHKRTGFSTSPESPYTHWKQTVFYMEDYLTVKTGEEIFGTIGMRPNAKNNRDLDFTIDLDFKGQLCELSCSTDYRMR
substance,measurement,setting,value
PRMT1-H293G/E153Q: double mutant created to further abolish PRMT1 activity,methyltransferase activity of PRMT1 mutant,[1],"even weaker than PRMT1-E153Q, greatly diminished to near background level"
same,kcat of PRMT1-WT (CPM / PRMT1-WT concentration) in presence of mutant,[2],increased as a function of PRMT1-H293G/E153Q concentration
same,methylated product amount (CPM) of PRMT1-WT in presence of mutant,[2],gradually went up as the concentrations of the double mutant increased
